Measurements from patent US20200002405A1.
Like-named read-outs stand apart in the source and are kept apart here.

B1: 25.10C (antibody, V domains shown)
VH: QVQLQESGGGLVKPGGSLRLSCTASGFNFNKYNMNWVRQAPGKGLEWVSSISALSTYIYYADSLKGRFTVSRDNAKNSLFLQMNSLRDDDTAVYYCAREIRRASTWSADLWGRGTLVTVSS
VL: DIQMTQSPSSLSASVGDRVIITCRASQSISSSLNWYQQKPGKAPKLLIYAAVNLETGVPSRFSGSGFGTDFTLAISNVQPEDFATYYCQQSDTRTFGRGTKLDVKR
B2: 19.7E (antibody, V domains shown)
VH: EVQLVESGGGLVRPGGSLRLSCAASGFSFSSYSMHWVRHVPGKGLVWVSYINSDGSTKIYADSVKGRFSISRDNAKNKLYLQMDSLRVEDTAVYSCVRLVHYDWSPFVWGQGTLVTVSS
VL: EIVLTQSPSTLSASVGDRVTITCRASQSINNWLAWYQEKPGKAPKLLINKASSLESGVPSRFSGSGSGTEFTLTITSLQPDDFATYYCQQYNSNSWTFGQGTKVDMKR

Experiments:
Assay in all cases: cell-based or functional assay
[1] = molecular target: LASV Josiah (lineage IV) glycoprotein, full-length GP (Lassa virus, Josiah strain) (UniProt P08669)
Chain of LASV Josiah (lineage IV) glycoprotein, full-length GP (Lassa virus, Josiah strain) (P08669 2-491): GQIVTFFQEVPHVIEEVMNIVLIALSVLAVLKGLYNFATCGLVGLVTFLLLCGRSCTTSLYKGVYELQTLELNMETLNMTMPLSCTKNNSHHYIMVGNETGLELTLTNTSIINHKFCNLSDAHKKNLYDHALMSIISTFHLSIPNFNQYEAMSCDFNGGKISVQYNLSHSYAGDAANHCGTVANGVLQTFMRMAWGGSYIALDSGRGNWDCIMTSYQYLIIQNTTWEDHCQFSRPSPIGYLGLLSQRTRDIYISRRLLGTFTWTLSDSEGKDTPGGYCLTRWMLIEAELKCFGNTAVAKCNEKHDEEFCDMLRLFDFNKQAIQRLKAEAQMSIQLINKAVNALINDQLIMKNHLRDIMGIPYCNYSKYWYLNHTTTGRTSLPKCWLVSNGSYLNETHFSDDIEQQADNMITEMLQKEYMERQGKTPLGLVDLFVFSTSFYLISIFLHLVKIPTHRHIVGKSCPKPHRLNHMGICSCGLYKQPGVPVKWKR

[2] = molecular target: LASV 237 (lineage III) glycoprotein (Lassa virus, strain 237)
[3] = molecular target: LASV Josiah (lineage IV) glycoprotein, full-length GP (Lassa virus, Josiah strain) (UniProt P08669); remark: listed apart in the source
[4] = molecular target: LASV Pinneo (lineage I) glycoprotein (Lassa virus, strain Pinneo)
[5] = molecular target: LASV A19 (lineage II) glycoprotein (Lassa virus, strain A19)

Binder | IC50 (neutralization) [1] | IC80 (neutralization) [1] | IC50 (neutralization) [2] | IC80 (neutralization) [2] | IC50 (neutralization) [3] | IC80 (neutralization) [3] | IC50 (neutralization) [4] | IC80 (neutralization) [4] | IC50 (neutralization) [5] | IC80 (neutralization) [5]
B1 | 0.16 mg/L | 0.247 mg/L | 0.058 mg/L | 0.18 mg/L | 0.094 mg/L | 0.174 mg/L | 0.226 mg/L | 0.564 mg/L | 0.104 mg/L | 0.364 mg/L
B2 | 1.19 mg/L | > 10 mg/L | 1.06 mg/L | 15 mg/L | 5.91 mg/L | > 20 mg/L | 1.56 mg/L | 3.27 mg/L | > 20 mg/L | > 20 mg/L
